Measured values reported in US20210388031A1 (New Jersey Institute of Technology, published 2021).

Molecular target: SARS-CoV-2 Spike protein on live virus (SARS-CoV-2, UniProt P0DTC2)
Assay: cell-based or functional assay

ESLSLSLSLSLSLEGSALEEGQLKTFLDKFMHELEDLLYQLAL [ESBP2] was tested, and the “IC50 of reduction in live-virus infectivity” value was less than 10 nM.
